Data published in patent US20140348834A1 (published 2014).
Residue numbers refer to the chain shown, from its start. Like-named read-outs stand apart in the source and are kept apart here.

T1: rat IL-17A (rat, UniProt Q61453 18-150, limits assumed)
T1 sequence (looked up): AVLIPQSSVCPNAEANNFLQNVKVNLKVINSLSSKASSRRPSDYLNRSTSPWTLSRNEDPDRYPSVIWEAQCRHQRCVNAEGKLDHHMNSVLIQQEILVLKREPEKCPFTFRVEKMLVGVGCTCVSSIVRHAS

T2: rat IL-17A (rat, UniProt Q61453 18-150, limits assumed)
T2 sequence (looked up): T1 sequence (looked up)

T3: mouse IL-17A (mouse, UniProt Q62386 26-158, limits assumed)
T3 construct: also called MuIL-17A; murine IL17A HIS
T3 sequence (looked up): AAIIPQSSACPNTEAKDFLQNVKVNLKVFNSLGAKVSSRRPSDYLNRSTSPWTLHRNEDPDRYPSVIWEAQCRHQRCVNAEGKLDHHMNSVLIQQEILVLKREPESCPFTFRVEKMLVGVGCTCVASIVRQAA

T4: mouse IL-17A (mouse, UniProt Q62386 26-158, limits assumed)
T4 construct: Purified recombinant protein in SPR; also called MuIL-17A; murine IL-17A
T4 sequence (looked up): T3 sequence (looked up)

T5: rat IL-17A (rat, UniProt Q61453 18-150, limits assumed)
T5 construct: Purified recombinant protein in SPR
T5 sequence (looked up): T1 sequence (looked up)

B1: IL17-h10F7.15 (antibody, V domains shown)
VH: EVQLVQSGAEVKKPGSSVKVSCKASGYTFTDYEIHWVRQAPGQGLEWIGVNDPESGGTFYNQKFDGRATLTADKSTSTAYMELSSLRSEDTAVYYCTRYYRYESFYGMDYWGQGTTVTVSS
VL: EIVLTQSPSSLSASVGDRVTITCSASSSISYIYWFQQKPGKSPKRWIYATFELASGVPSRFSGSGSGTDYTLTISSLQPEDFATYYCHQRSSYPWTFGQGTKLEIKR
notes: IgG; constant regions not specified
B2: IL17-B6-11 (antibody, V domains shown)
VH: EVQLVQSGAEVKKPGSSVKVSCKASGGSFLSYGFSWVRQAPGQGLEWMGGITPFFGFADYAQKFQGRVTITADESTTTAYMELSGLTSDDTAVYYCAREPNDFWNGYYTTHHFDYWGQGTTVTVSS
VL: DVVMTQSPDFQSVTPKEKVTITCRASQNIGSALHWYQQKPDQSPKLLIKYASQSISGVPSRFSGSGSGTDFTLTINGLEAEDAGTYYCHQSTSLPHTFGQGTKLDIKR
B3: IL17-B6-17 (antibody, V domains shown)
VH: B2 VH with L30G, S31G, F34I, S35G, E99D, D102E, T109S, H112D, Y115S
VL: EIVLTQSPDFQSVTPKEKVTITCRASQDIGSELHWYQQKPDQPPKLLIKYASHSTSGVPSRFSGSGSGTDFTLTINGLEAEDAGTYYCHQTDSLPYTFGPGTKVDIK
B4: IL17-B6-5 (antibody, V domains shown)
VH: B2 VH with S16E, V20I, L30R, F34I, P53H, F57I, A58T, T109D, H112D, Y115S
VL: B3 VL with D28N, P43S, T55I, G84A, T91S, S93T, Y96H, P100Q
notes: also called pJP243 B6.1 #5VH / pJP244 B6.1 #5VK
B5: ML109-6C6 (antibody, V domains shown)
VH: QVQLQQSGAELVRPGASVKLSCKASGYTFSDYEIHWVKQTPVHGLAWIGVIHPGNGGTAYNQKFKDKATLTADKSSSTAYMELSSLTSEDSAVYYCERFLTYEGYFDYWGQGTTLTVSS
VL: SIVMTQTPKFLLVSAGDRVTITCKASQSVNNDVAWYQHKPGQSPKLLINYASNRYTGVPDRFTGSGYGTDFTFTISTVQAEDLAIYFCQQDYGSPYTFGGGTKLEIKR
notes: Hybridoma-derived murine mAb; also called 6C6.3B4

Tests used:
human IL-17A [1] = target: T6, human IL-17A (human, UniProt Q16552 24-155); assay: hIL17A ELISA
T6 construct: Recombinant; biotinylated in the ELISA; also called hIL-17; hIL17A
T6 sequence (Q16552 24-155): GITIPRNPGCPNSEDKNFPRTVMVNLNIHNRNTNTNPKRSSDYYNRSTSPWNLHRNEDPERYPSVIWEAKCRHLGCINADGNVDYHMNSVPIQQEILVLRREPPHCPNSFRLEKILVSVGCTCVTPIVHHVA
Experimental: The following protocol is used to characterize the binding of IL-17 antibodies to human IL-17 by enzyme-linked immunosorbent assay (ELISA). […] Coat ELISA plate with 50 μl per well of Goat anti Mouse IgG-Fc at 2 ug/ml, overnight at 4° C. […] Wash plate 3×PBS/Tween. […] Add 50 μl Mab diluted to 1 μg/ml in PBS/0.1% BSA to appropriate wells. Incubate 1 hr at room temperature (RT). […] Wash plate 3× with PBS/Tween. […] Add 50 μl of serial diluted biotin-IL17 (human IL-17, IL-17A/F, cyno IL-17) to appropriate wells. Incubate 1 hr at room temperature (RT). […] Wash plate 3× with PBS/Tween. […] Incubate 1 hr at RT. […] Wash plate 3× with PBS/Tween. […] Stop reaction with 50 μl 2N H₂SO₄. […] Read absorbance at 450 nm.

human IL-17A [2] = target: T6, human IL-17A; assay: cell-based or functional assay
cynomolgus monkey IL-17A [3] = target: T7, cynomolgus monkey IL-17A (cynomolgus monkey, UniProt A0A2K5TTB0 24-155); assay: cell-based or functional assay
T7 sequence (A0A2K5TTB0 entry or part of it): as the sequence (Q16552 24-155) above, with T3A, P8S, N34S, I77V, N78K, P104R counted along it

human IL-17A [4] = target: T8, human IL-17A (human, UniProt Q16552 24-155); assay: ELISA, captured antibody, serially diluted biotin-IL-17 (Example 1.5.1)
T8 construct: Biotinylated in the ELISA; also called hIL-17; Hu IL-17A
T8 sequence (Q16552 24-155 limits assumed): as the sequence (Q16552 24-155) above

human IL-17A [5] = target: T8, human IL-17A; assay: cell-based or functional assay; remark: listed apart in the source
rat IL-17A [6] = target: T1, rat IL-17A; assay: cell-based or functional assay
human IL-17A/F [7] = target: human IL-17A/F (human, UniProt Q16552 24-155; Q96PD4 31-163); assay: cell-based or functional assay
Target sequence in this assay (Q16552 24-155 limits assumed, chain 1 of 2): as the sequence (Q16552 24-155) above
Target sequence in this assay (Q96PD4 31-163 limits assumed, chain 2 of 2): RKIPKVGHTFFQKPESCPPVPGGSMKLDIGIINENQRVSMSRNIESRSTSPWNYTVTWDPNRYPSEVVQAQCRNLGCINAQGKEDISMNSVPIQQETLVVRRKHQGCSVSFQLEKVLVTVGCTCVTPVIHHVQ

[8] = target: cynomolgous monkey (cyno) IL-17A (cynomolgus monkey, UniProt A0A2K5TTB0 24-155); assay: cell-based or functional assay
Chain of cynomolgous monkey (cyno) IL-17A (A0A2K5TTB0 entry or part of it): as the sequence (Q16552 24-155) above, with T3A, P8S, N34S, I77V, N78K, P104R counted along it

cyno IL-17A = cyno IL-17A (cynomolgus monkey, UniProt A0A2K5TTB0 24-155); assay: SPR Biacore, captured binder
Chain of cyno IL-17A (A0A2K5TTB0 entry or part of it): as the sequence (Q16552 24-155) above, with T3A, P8S, N34S, I77V, N78K, P104R counted along it
Experimental: (§1) The binding of antibodies to purified recombinant human, cyno, rat, mouse, rabbit IL-17 and human IL-17A/F were determined by surface plasmon resonance-based measurements with a Biacore® 3000 instrument (Biacore® AB, Uppsala, Sweden) using running HBS-EP (10 mM HEPES [pH 7.4], 150 mM NaCl, 3 mM EDTA, and 0.005% surfactant P20) at 25° C. […] Approximately 5000 RU of goat anti-mouse or anti-human IgG (Fcγ) fragment specific polyclonal antibody (Pierce Biotechnology Inc, Rockford, Ill.) diluted in 10 mM sodium acetate (pH 4.5) was directly immobilized across a CM5 research grade biosensor chip using a standard amine coupling kit according to manufacturer's instructions and procedures at 25 μg/ml. Unreacted moieties on the biosensor surface were blocked with ethanolamine. Modified carboxymethyl dextran surface in flowcell 2 and 4 was used as a reaction surface. Unmodified carboxymethyl dextran without goat anti-mouse or anti-human IgG in flow cell 1 and 3 was used as the reference surface. For kinetic analysis, rate equations derived from the 1:1 Langmuir binding model were fitted simultaneously to association and dissociation phases of all eight injections (using global fit analysis) with the use of Biaevaluation 4.0.1 software. Purified antibodies were diluted in HEPES-buffered saline for capture across goat anti-mouse or anti-human IgG specific reaction surfaces. Antibodies to be captured as a ligand (25 μg/ml) were injected over reaction matrices at a flow rate of 5 μl/min. The association and dissociation rate constants, kon (unit M-1s-1) and koff (unit s-1) were determined under a continuous flow rate of 25 μl/min. Rate constants were derived by making kinetic binding measurements at ten different antigen concentrations ranging from 10 nM to 200 nM. The equilibrium dissociation constant (unit M) of the reaction between antibodies and recombinant purified IL-17 antigens was then calculated from the kinetic rate constants by the following formula: KD=koff/kon. Binding was recorded as a function of time and kinetic rate constants are calculated. In this assay, on-rates as fast as 10⁶ M⁻¹ s⁻¹ and off-rates as slow as 10⁻⁶ s⁻¹ can be measured.

rat IL-17A [9] = target: T2, rat IL-17A; assay: SPR Biacore, captured binder
Experimental: as §1

mouse IL-17A [10] = target: T3, mouse IL-17A; assay: SPR Biacore, captured binder
Experimental: as §1

rabbit IL-17A = target: T9, rabbit IL-17A (rabbit); assay: SPR Biacore, captured binder
T9 construct: also called RabIL-17A
Experimental: as §1

human IL-17A/F [11] = target: T10, human IL-17A/F (human, UniProt Q16552 24-155; Q96PD4 31-163); assay: SPR Biacore, captured binder
T10 construct: Heterodimer of IL-17A and IL-17F, purified recombinant; also called HuIL-17A/F; Hu IL-17A/F
T10 sequence (Q16552 24-155 limits assumed, chain 1 of 2): as the sequence (Q16552 24-155) above
T10 sequence (Q96PD4 31-163 limits assumed, chain 2 of 2): as the sequence (Q96PD4 31-163 limits assumed, chain 2 of 2) above
Experimental: as §1

human IL-17A [12] = target: T11, human IL-17A (human, UniProt Q16552 24-155); assay: SPR Biacore, captured binder
T11 construct: Purified recombinant; biotinylated in the ELISA; also called HuIL-17A; Hu IL-17A
T11 sequence (Q16552 24-155 limits assumed): as the sequence (Q16552 24-155) above
Experimental: as §1

human IL-17A [13] = target: T6, human IL-17A; assay: cell-based or functional assay; remark: listed apart in the source
human IL-17A [14] = target: T6, human IL-17A; assay: SPR (Biacore 3000), antibody captured by anti-Fc, antigen in solution;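 further: rates obtained by global fitting of a one-to-one Langmuir model over a series of antigen concentrations, Kd derived as koff over kon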
Experimental: as §1

mouse IL-17A [15] = target: T4, mouse IL-17A; assay: as above
Experimental: as §1

rat IL-17A [16] = target: T5, rat IL-17A; assay: as above
Experimental: as §1

cynomolgus monkey IL-17A [17] = target: T7, cynomolgus monkey IL-17A; assay: as above
Experimental: as §1

human IL-17A/F [18] = target: T12, human IL-17A/F (human, UniProt Q16552 24-155; Q96PD4 31-163); assay: as above
T12 construct: Recombinant; biotinylated in the ELISA; also called hIL-17A/F; HuIL-17A/F
T12 sequence (Q16552 24-155, chain 1 of 2): as the sequence (Q16552 24-155) above
T12 sequence (Q96PD4 31-163, chain 2 of 2): as the sequence (Q96PD4 31-163 limits assumed, chain 2 of 2) above
Experimental: as §1

Binder	Kd (cyno IL-17A) [pM]	koff (cyno IL-17A) [s⁻¹]	kon (cyno IL-17A) [M⁻¹ s⁻¹]	Kd (rat IL-17A [9]) [pM]	koff (rat IL-17A [9]) [s⁻¹]	kon (rat IL-17A [9]) [M⁻¹ s⁻¹]	Kd (mouse IL-17A [10]) [pM]	koff (mouse IL-17A [10]) [s⁻¹]	kon (mouse IL-17A [10]) [M⁻¹ s⁻¹]	Kd (rabbit IL-17A) [pM]	koff (rabbit IL-17A) [s⁻¹]	kon (rabbit IL-17A) [M⁻¹ s⁻¹]	Kd (human IL-17A/F [11]) [pM]	koff (human IL-17A/F [11]) [s⁻¹]	kon (human IL-17A/F [11]) [M⁻¹ s⁻¹]	Kd (human IL-17A [12]) [pM]	koff (human IL-17A [12]) [s⁻¹]	kon (human IL-17A [12]) [M⁻¹ s⁻¹]	other results
B1																			EC50 (human IL-17A [1]): 140 pM; Potency (pM), IL-17-driven IL-6 production in HS27 cells (human IL-17A [2]): 309 pM; Potency (pM), IL-17-driven IL-6 production in HS27 cells (cynomolgus monkey IL-17A [3]): 499 pM
B2																			EC50 (human IL-17A [4]): 58 pM; Potency (pM), IL-17-driven IL-6 production in HS27 cells (human IL-17A [5]): 20 pM; Potency (pM), IL-17 and TNF-induced IL-6 secretion from NIH3T3 cells (rat IL-17A [6]): 6100 pM; Potency (pM), IL-17-driven IL-6 production in HS27 cells (human IL-17A/F [7]): 71 pM; Potency (pM), IL-17-driven IL-6 production in HS27 cells [8]: 33 pM
B3	1.03	1.05e-05	1.02e+07	9.64	5.91e-05	6.13e+06	113	0.000169	1.49e+06	3.51	3.36e-05	9.58e+06	1.7	1.23e-05	7.23e+06	0.785	3.1e-06	3.95e+06	
B4	5.39	6.52e-05	1.21e+07	9.05	5.54e-05	6.12e+06	39.5	0.000102	2.58e+06	3.17	2.23e-05	7.03e+06	2.22	2.95e-05	1.33e+07	3.18	2.29e-05	7.2e+06	
B5																			Potency (pM), IL-17-driven IL-6 production in HS27 cells (human IL-17A [13]): 36 pM; Kd (human IL-17A [14]): 18.7 pM; koff (human IL-17A [14]): 6.78e-05 s⁻¹; kon (human IL-17A [14]): 3.63e+06 M⁻¹ s⁻¹; Kd (mouse IL-17A [15]): 357 pM; koff (mouse IL-17A [15]): 0.00087 s⁻¹; kon (mouse IL-17A [15]): 2.44e+06 M⁻¹ s⁻¹; Kd (rat IL-17A [16]): 142 pM; koff (rat IL-17A [16]): 0.000704 s⁻¹; kon (rat IL-17A [16]): 4.95e+06 M⁻¹ s⁻¹; Kd (cynomolgus monkey IL-17A [17]): 42.5 pM; koff (cynomolgus monkey IL-17A [17]): 0.000116 s⁻¹; kon (cynomolgus monkey IL-17A [17]): 2.73e+06 M⁻¹ s⁻¹; Kd (human IL-17A/F [18]): 189 pM; koff (human IL-17A/F [18]): 0.000366 s⁻¹; kon (human IL-17A/F [18]): 1.94e+06 M⁻¹ s⁻¹
